# B1: Nuclear receptor subfamily 2 group C member 1 (Mus musculus), Q505F1 (parent)
# chain: MATIEEIAHQIIDQQMGEIVTEQQTGQKIQIVTALDHSTQGKQFILANHEGSTPGKVFLTTPDAAGVNQLFFTSPDLSAPHLQLLTEKSPDQGPNKVFDLCVVCGDKASGRHYGAITCEGCKGFFKRSIRKNLVYSCRGSKDCVINKHHRNRCQYCRLQRCIAFGMKQDSVQCERKPIEVSREKSSNCAASTEKIYIRKDLRSPLAATPTFVTDSETARSAGLLDSGMFVNIHPSGIKTEPAMLMAPDKAESCQGDLSTLASVVTSLANLGKAKDLSHCGGDMPVVQSLRNGDTSFGAFHHDIQTNGDVSRAFDTLAKALTPGESSACQSPEEGMEGSPHLIAGEPSFVEKEGPLLSESHVAFRLTMPSPMPEYLNVHYIGESASRLLFLSMHWALSIPSFQALGQENSISLVKAYWNELFTLGLAQCWQVMNVATILATFVNCLHSSLQQDKMSPERRKSLMEHIFKLQEFCNSMVKLCIDGHEYAYLKAIVLFSPDHPGLENMELIERFQEKAYVEFQDYITRTYPDDTYRLSRLLLRLPALRLMNATITEELFFKGLIGNVRIDSVIPHILKMEPADYNSQIIGHSL
# Variants of: B1
# Details: with pias1_mouse Pias1, O88907
# Chain of pias1_mouse Pias1, O88907 (O88907 whole entry): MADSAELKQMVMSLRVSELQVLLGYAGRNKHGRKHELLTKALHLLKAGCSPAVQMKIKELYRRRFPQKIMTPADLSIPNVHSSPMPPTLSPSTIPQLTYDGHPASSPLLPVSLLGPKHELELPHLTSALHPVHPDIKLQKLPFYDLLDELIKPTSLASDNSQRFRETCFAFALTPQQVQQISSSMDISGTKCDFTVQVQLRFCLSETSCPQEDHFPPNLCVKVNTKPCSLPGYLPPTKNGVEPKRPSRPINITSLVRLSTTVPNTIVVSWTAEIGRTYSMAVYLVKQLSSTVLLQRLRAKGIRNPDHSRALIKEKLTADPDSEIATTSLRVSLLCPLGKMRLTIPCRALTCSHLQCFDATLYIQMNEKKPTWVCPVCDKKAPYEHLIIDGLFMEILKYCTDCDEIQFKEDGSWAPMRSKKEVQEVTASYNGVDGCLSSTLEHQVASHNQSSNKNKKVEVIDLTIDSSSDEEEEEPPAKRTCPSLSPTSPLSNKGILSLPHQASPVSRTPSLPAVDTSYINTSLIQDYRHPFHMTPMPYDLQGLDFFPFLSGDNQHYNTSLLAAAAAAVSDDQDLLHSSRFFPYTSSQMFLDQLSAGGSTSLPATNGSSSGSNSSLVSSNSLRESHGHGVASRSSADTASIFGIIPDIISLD
row,Variant,effect of a mutation on the interaction
1,MATIEEIAHQIIDQQMGEIVTEQQTGQKIQIVTALDHSTQGKQFILANHEGSTPGKVFLTTPDAAGVNQLFFTSPDLSAPHLQLLTEKSPDQGPNKVFDLCVVCGDKASGRHYGAITCEGCKGFFKRSIRKNLVYSCRGSKDCVINKHHRNRCQYCRLQRCIAFGMKQDSVQCERKPIEVSREKSSNCAASTEKIYIRKDLRSPLAATPTFVTDSETARSAGLLDSGMFVNIHPSGIATEPAMLMAPDKAESCQGDLSTLASVVTSLANLGKAKDLSHCGGDMPVVQSLRNGDTSFGAFHHDIQTNGDVSRAFDTLAKALTPGESSACQSPEEGMEGSPHLIAGEPSFVEKEGPLLSESHVAFRLTMPSPMPEYLNVHYIGESASRLLFLSMHWALSIPSFQALGQENSISLVKAYWNELFTLGLAQCWQVMNVATILATFVNCLHSSLQQDKMSPERRKSLMEHIFKLQEFCNSMVKLCIDGHEYAYLKAIVLFSPDHPGLENMELIERFQEKAYVEFQDYITRTYPDDTYRLSRLLLRLPALRLMNATITEELFFKGLIGNVRIDSVIPHILKMEPADYNSQIIGHSL [K238A],decreasing interaction

# Reference: IntAct's records for PubMed 17187077
